Measurements taken from the supplement of paper PMC9170038.

Tested on: MS2 coat protein
Assay: apparent KD of MS2 coat protein; designed switch direction (-1 OFF switch, 1 ON switch): 1; higher = weaker reporter binding
Method in brief: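 Apparent KD, taken as the median over clusters for each design, was obtained by curve-fitting normalised cluster fluorescence. Designed RNA switches had been transcribed on Illumina chips by stalled E. coli RNA polymerase and titrated with SNAP-549-labelled MS2 coat protein, doubling from 0.7 or 1.5 nM to 3 µM.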

[1] = input ligand: microRNA oligo, concentration not stated
[2] = Eterna round: R95, input ligand: microRNA oligo, concentration not stated
[3] = Eterna round: R95, input ligand: FMN 200 uM
[4] = Eterna round: R95, input ligand: none

| Sequence | apparent KD of MS2 coat protein (input ligand: FMN 200 uM) | apparent KD of MS2 coat protein [1] | apparent KD of MS2 coat protein (input ligand: none) | apparent KD of MS2 coat protein [2] | apparent KD of MS2 coat protein [3] | apparent KD of MS2 coat protein [4] |
| --- | --- | --- | --- | --- | --- | --- |
| AGCUAUUAAUCAGGAUAUGGUCACAUGAGGAUCACCCAUGUAUCGAUGAUAUGAUGUGGUCAAUACUAGAAGGGAUUGCUAACA [SameState NG2 #64] (Eterna round: R96, puzzle: Same State NG 2) | 180 nM | 104 nM | 152 nM | – | – | – |
| CAGCGCUGUCGAGAGGAUAUGCGGUGAUGGACAUGAGGAUCACCCAUGUUAGCGGUAGCAUUACGGUAGAAGGCUCUACAGCUGC [Soteed - 3] (puzzle: Same State 2) | – | – | – | 24.7 nM | – | – |
| CACAAUCUAUCUGAGGAUAUCAUGAAAAAAACAUGAGGAUCACCCAUGUGCAGGAAAACUGCAUAUGAGAAGGCAGAUAGAUUGG [salish99_SS2_r3_014] (Eterna round: R96, puzzle: Same State 2) | – | 504 nM | – | – | – | – |
| GUGGUCAGACAUGAGGAUCACCCAUGUGGAAUAAAUAACGGACAGGAUAUAUAAUAUAGGAUAUAGUAGAAGGGUUGAUUGGUG (Eterna round: R96, puzzle: Same State NG 3) | 85.8 nM | 57.7 nM | 60.2 nM | – | – | – |
| GUGGCCCAGGCACAGGAUAUGUUUCUCGUAACAUGAGGAUCACCCAUGUGCCUAUGAGAUUUUAUGCAGAAGGGUGCACGCCACG [JL Atiinbe mod 01] (puzzle: Same State 2) | – | – | – | 56 nM | 18.5 nM | 123 nM |
| UGUUGUAUUACAGGAUAUCUAUUAUUUUUAUUUAGAGAAGGGUAUUCACAUGAGGAUCACCCAUGUAUAUACGAGGAAGAUGUG [JMF's solution 5] (Eterna round: R96, puzzle: Same State NG 1) | – | 60.4 nM | – | – | – | – |
| GCUACCAAAGAAGCCAACAUGAGGAUCACCCAUGUAUGUUGGCAGGAUAUCGAUUGCAAAGCGAUCGAGAAGGGCUAAGGUAGC [Mat - Same State NG 3 - JL Mod - D88] (Eterna round: R96, puzzle: Same State NG 3) | 147 nM | 214 nM | 204 nM | – | – | – |
| UUUAGUUGCGGGCAGGAUAUGUGUUAAAAUACAUGAGGAUCACCCAUGUGCGGGUAUAACACCCGACAGAAGGGCCAAUCGCGAC [Laonerce - 2] (Eterna round: R96, puzzle: Same State 2) | 13.5 nM | 44.2 nM | 54.9 nM | – | – | – |
| AGCUAUCGAAAACGAUAGCAAAAGCAUGUACAUGAGGAUCACCCAUGUCAUGUGCAAGCUUUUUGCUCGUCUUAAAA [Zipper 23 - 4] (puzzle: Sensor for hsa-mir-208a) | – | – | – | 10.7 nM | 163 nM | 208 nM |
| UCUUGGUUUUUGCUCGUUUUUUGUGUUGAACAUGAGGAUCACCCAUGUAUUGUACGGUCCAGUUUGGUGGUAGUCCG [JMF 71] (puzzle: Sensor for hsa-mir-208a) | – | – | – | 24.4 nM | 32.9 nM | 38 nM |
| AUAAGUUCGAUGCUCGUCUCUCCGUACAAACAUGAGGAUCACCCAUGUGGCCGGGAAGUAGCCCGACCAGUAUGGCC [Tearbeorve] (puzzle: Sensor for hsa-mir-208a) | – | – | – | 27.1 nM | 38.6 nM | 45.2 nM |
| CGGGUACAUGAGGAUCACCCAUGUGGGAGAGAUGCAGGAUAUGUGGGAAAAGGGAAUGUAACAGAAGGGCAAGGAG [JR_SS!_Sub015] (puzzle: Same State 1) | – | – | – | 128 nM | 220 nM | 124 nM |
| UGUACUUUCAUAGGAUAUCAUGCGAAAAUUGCGUGAGAAGGGUGAAUACUGUCUUUCUAAGAGUACAUGAGGAUCACCCAUGUA [SameState NG1 #63] (Eterna round: R96, puzzle: Same State NG 1) | 77.3 nM | 80.2 nM | 67.5 nM | – | – | – |
| AAGAAGACGGACAAGGAUAUGUCAAAGGAAACAUGAGGAUCACCCAUGUGGAGAUUGGAAAAGAAACAGAAGGUGUACGGAGAGA [JR_SS2_Sub007] (puzzle: Same State 2) | – | – | – | 12.3 nM | 10.6 nM | 29.3 nM |
| GGGCCAGCUUUUGCUGGGCCUUCGCUUGCACAUGAGGAUCACCCAUGUCGUGUACACGCUUCCUGCCCGUCUUGUUU [Photon Torp-19] (puzzle: Sensor for hsa-mir-208a) | – | – | – | 15.3 nM | 24 nM | 24.6 nM |
| GGCCUGAGUGAAGGAUAUGCUACCGUUUCGGUAGCAGAAGGUCAUCACAUGAGGAUGACCCAUGUUUACGCGAACACGCGCGCC (Eterna round: R96, puzzle: Same State NG 1) | 45.9 nM | 27.2 nM | 28.2 nM | – | – | – |
| GGAGCCAAGGCAGGAUAUUCAUAUUAAUAACACAUGAGGAUCACCCAUGUGGCCAGAAGGCCUUGGGAGAAGGGCCAUGGCUCG [Xeonanis - 13 mod9] (Eterna round: R96, puzzle: Same State NG 2) | 28 nM | 57.7 nM | 95.3 nM | – | – | – |
| UUCCCAGCGGGAGGAUAUGGUGCCUUAUUGGUGCUAGAAGGUCCAACAUGAGGAUCACCCAUGUGGGAGUGGUCUAAUGACCUC [SS NG10LRO07] (Eterna round: R96, puzzle: Same State NG 1) | – | 169 nM | – | – | – | – |
| AGUCCAGCCUGAGCUGGACAAAAGCAUGUACAUGAGGAUCACCCAUGUCAUGUACAAGCUUUUUGCUCGUCAUAAUA [Mat - hsa-mir-208a - Mod of JL - D28] (puzzle: Sensor for hsa-mir-208a) | – | – | – | 14.9 nM | 653 nM | 710 nM |
| GACUAUCUAUCUCAGGAUAUCAUGUCAAAGACAUGAGGAUCACCCAUGUACCAGGAAACUGGUUAUGAGAAGGGAGAUAGAUAGG [Mat - Same State 2 - Mod - D43] (puzzle: Same State 2) | – | – | – | 26.3 nM | 81.1 nM | 38.8 nM |
| GGUCCAGCCUGAGCUGGACAGAAGCAUGUACAUGAGGAUCACCCAUGUCAUGUACAAGCUUUUUGCUCGUCUUAAAA [JL mod - D87 - 1] (puzzle: Sensor for hsa-mir-208a) | – | – | – | 13.2 nM | 439 nM | 498 nM |
| AGUAUACAUGAGGAUCACCCAUGUCAACGUAGUCGAGGAUAUGGGCAGCCGUGAGGCGUACCAGAAGGCGAAGAGA [Mat - Same State 1 - Mod of JL - D5] (puzzle: Same State 1) | – | – | – | 50.5 nM | 24.5 nM | 68.6 nM |
| GCGUGAGAGAUAGGAUAUCGUGUACCUACAUGUGACAUGAGGAUCACCCAUGUGGUAAGUAUGAGCGAGAAGGAUCCGAUAUGU [salish99_SSNG2_r04_1003] (Eterna round: R96, puzzle: Same State NG 2) | 28.2 nM | 54.7 nM | 63.5 nM | – | – | – |
| GGAGCCGGCCUAGGAUAUUUCAUUUUAAAACAUGAGGAUCACCCAUGUAGGCCAGAAGGCCUUGGGAAGAAGGAGGUCGGCUCC [Loop Effect - U24,U25,U26] (Eterna round: R96, puzzle: Same State NG 2) | 17.4 nM | 33.2 nM | 69.3 nM | – | – | – |
